Results: patent US8802826B2, “Anti-clusterin antibodies and antigen binding fragments and their use to reduce tumor volume” (Alethia Biotherapeutics Inc., priority 2009, dated 2014)
Values belong to the molecule of their own block, whether it stands above or below them.

Tests used:
[1] = system: PC-3 prostate cancer cells; assay: PC-3 prostate tumor xenograft; assay type: in vivo, SCID mice; details: single injection 10 mg/kg i.p. on day 5
Protocol: PC-3 prostate cancer cells (2×10^6) were implanted s.c. into SCID mice and allowed to grow until the tumor sizes were approximately 100 mm^3. Tumors were measured bi-weekly with a digital caliper and tumor volumes were calculated as L×W×H. Each group contained 8 animals that were randomized prior to the beginning off the treatments. The results were expressed as mm^3±SEM.
A second prostate cancer model study was conducted in a different tumor model by implanting PC-3 prostate cancer cells. PC-3 cells are also hormone-insensitive but are documented as being slightly more invasive than the DU145 cells. As was described above, the cells were implanted sub-cutaneously in SCID mice and treatments were initiated when the tumors reached a volume of approximately 100 mm^3 (designated day 1). The h16B5 injections were administered i.p. on day 1 at 5 mg/kg and continued twice per week thereafter whereas a single TxT injection at 10 mg/kg was administered i.p. on day 5.

[2] = target: T1, human clusterin (recombinant monomeric clusterin) (Homo sapiens, UniProt P10909); assay: BIAcore kinetic analysis of antibody binding to immobilized clusterin; details: for KD of the interaction with immobilized human clusterin: stated in words
T1 construct: Recombinant monomeric clusterin was immobilized on a CM3 chip with normal amine coupling method
Protocol: The purpose of these investigations is to determine the kinetics parameters of anti-clusterin antibodies. In particular, to determine whether the humanization of the 16B5 and 21B12 anti-clusterin monoclonal antibody affects the kinetics parameters of its binding to human clusterin. To this end, a kinetic analysis method was developed using the BIAcore 3000. Human clusterin was immobilized on a sensor chip. Full length antibodies or Fab fragments were injected and allowed to interact with the immobilized clusterin. This example described the exemplary antibody 16B5 but the 21B12 exemplary antibody was prepared and tested in a similar manner.
HBST (10 mM Hepes pH 7.4, 135 mM NaCl, 3.4 mM EDTA, 0.005% Tween 20) was used as running buffer for all BIAcore experiments. Recombinant monomeric clusterin was immobilized on a CM3 chip with normal amine coupling method at a flow of 5 μl/min. Surface was activated with 35 μl of a mixture of 50 mM NHS/0.2M EDC. Clusterin in 10 mM Na-acetate pH 4.5 was injected until a desired amount was captured (below 60RU). Unreacted esters were deactivated with 35 μL1 of 1M ethanolamine hydrochloride-NaOH pH8.5. A control surface was prepared by injecting NHS/EDC and ethanolamine in the same manner.
Kinetics analysis was conducted at a flow of 50 μl/min. Full length antibodies (mouse or humanized) or Fab were diluted in HBST. Concentration range was from 1.953-31.25 nM for the full length antibodies and 15.625-250 nM for the Fab. Each concentration was injected over the clusterin and a control surface for 5 min followed with a 5 min dissociation wash. The clusterin surface was regenerated between each antibody injection with 50 μl of 20 mM HCl.

EMT6 cells = assay: wound healing (scratch) migration assay; assay type: cell-based, mouse; details: 37 C for 15 h
Protocol: FIG. 4. h16B5 blocks the migration of cancer cell lines.
To test the activity of anti-clusterin antibodies against cancer cell migration, a standard wound healing, or scratch assay, was used. In this assay, EMT6 cells, a mouse mammary carcinoma cell line, was plated at high density and subjected to wounding by the creation of a scratch in the cell layer. At time 0, a wide denuded area is evident that quickly fills up after incubation of the cells at 37 C for 15 h (see upper left-hand panels in FIG. 4).

T1 sequence (P10909 23-449): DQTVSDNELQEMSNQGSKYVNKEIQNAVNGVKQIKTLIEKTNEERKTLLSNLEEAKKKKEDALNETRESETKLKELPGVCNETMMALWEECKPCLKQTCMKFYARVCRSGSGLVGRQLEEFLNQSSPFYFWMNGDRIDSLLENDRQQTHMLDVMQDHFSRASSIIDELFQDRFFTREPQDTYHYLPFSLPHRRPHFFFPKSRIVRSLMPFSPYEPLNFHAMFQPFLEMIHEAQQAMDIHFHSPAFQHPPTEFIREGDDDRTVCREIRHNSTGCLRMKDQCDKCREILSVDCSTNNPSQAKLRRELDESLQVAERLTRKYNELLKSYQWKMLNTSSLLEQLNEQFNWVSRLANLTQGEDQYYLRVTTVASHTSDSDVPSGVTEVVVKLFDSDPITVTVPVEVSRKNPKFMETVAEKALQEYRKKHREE

Molecule: CC(=O)O[C@@]12CO[C@@H]1C[C@H](O)[C@@]1(C)C(=O)[C@H](O)C3=C(C)[C@@H](OC(=O)[C@H](O)[C@@H](NC(=O)OC(C)(C)C)c4ccccc4)C[C@@](O)([C@@H](OC(=O)c4ccccc4)[C@H]21)C3(C)C [TxT, taxotere, reference compound]
time after injection at which tumors appeared to recover from treatment [1]: approximately 18 days

B3: HH16B5 Fab: Fab fragment of humanized 16B5 prepared by papain digestion (antibody, V domains shown)
VH: QVQLVQSGAEVKKPGATVKISCKVSGFNIKDIYMHWVQQAPGKGLEWMGRIDPAYGNTKYDPKFQGRVTITADTSTDTAYMELSSLRSEDTAVYYCARRYDTAMDYWGQGTLVTVSS
VL: DIVMTQSPDSLAVSLGERATINCKSSQSLLNSRTRKNYLAWYQQKPGQPPKLLIYWASTRESGVPDRFSGSGSGTDFTLTISSLQAEDVAVYYCKQSYNLWTFGQGTKLEIK
kinetics parameters compared with the parent mouse antibody ([2]; full length vs full length, Fab vs Fab): slightly better

Continued, in another order:

KD of the interaction with immobilized human clusterin [2]: low nM range
B1: mouse 16B5: parent mouse anti-clusterin monoclonal antibody, VL SEQ ID NO.:25, VH SEQ ID NO.:29 (antibody, V domains shown)
VH: EVQLQQSGAELVKPGASVRLSCTTSGFNIKDIYMHWVKQRPEQGLEWIGRIDPAYGNTKYDPKFQGKATITADTSSNTAYLQLSSLTSEDTAVYYCARRYDTAMDYWGQGTSVTVSS
VL: DIVMSQSPSSLAVSAGEKVTMSCKSSQSLLNSRTRKNYLAWYQQKPGQSPKLLIYWASTRESGVPDRFTGSGSGTDFTLTISSVQAEDLAVYYCKQSYNLWTFGGGTKLEFK
modifications: murine 16B5 VH; murine 16B5 VL
migration of cells into the denuded area (EMT6 cells): reduced number of cells in the denuded area

KD of the interaction with immobilized human clusterin [2]: low nM range
B2: mouse 21B12: parent mouse anti-clusterin monoclonal antibody, VL SEQ ID NO.:33, VH SEQ ID NO.:37 (antibody, V domains shown)
VH: QIQLVQSGPELKKPGETVKISCKASGYTFTNYGMHWVKQAPGKGLKWMGWINTYTGEPTYADDFKGRFAFSLETSASTAYLQINNLKNEDTATYFCARDGFLYFFDYWGQGTTLTVSS
VL: DIVMSQSPSSLAVSVGEKVTMSCKSSQSLLYSSNQKNYLAWYQQRPGQSPKLLIYWASTRESGVPDRFTGSGSGTDFTLTISSVKAEDLAVYYCQQYYIYPRTFGGGTKLEIK
modifications: murine 21B12 VH; murine 21B12 VL
